Results published in PMC7020344, “The eEF2 kinase-induced STAT3 inactivation inhibits lung cancer cell proliferation by phosphorylation of PKM2” (Cell Communication and Signaling : CCS, 2020).
“And” between values parts separate entries of the source, which are not always exact repeats. Identical values can stand only once.

Biological target: the molecule itself
Assay: cross-linking; A549 cells washed with PBS pH 8.0 and treated with BS3 for 1 h at room temperature before lysis in loading buffer; dimers and tetramers by immunoblot; cells with eEF2K depletion, overexpression or A484954

B1: FLAG-PKM2 T129A (enzyme)
chain: not shown
notes: human PKM2 from the vector pWZL-FLAG-PKM2 (Addgene #20585) with the point mutation T129A made by PCR mutagenesis; source: A549 cells expressing it, in cells (cross-linked with BS3 before lysis)
stoichiometry N: 4 and 2
